Assay [1] addresses T1, human GITR on 293F‐hGITR cells (Homo sapiens (Human)., UniProt Q9Y5U5-1). Put plainly: cell-based or functional assay.
For assay [2], the target named is T2, hGITR ECD hFc (Homo sapiens (Human)., UniProt Q9Y5U5, Thr45Ala).
T2 construct: human GITR (glucocorticoid-induced TNF receptor-related), extracellular domain, Gln26-Glu161 with Thr45Ala, UniProt Q9Y5U5.1; also called human GITR protein; source: FreeStyle 293F, transiently transfected, purified by protein A
The experiment in a line: SPR; Biacore T200; hGITR ECD hFc immobilised on a Series S CM5 chip; antibody 0, 3.125, 6.25, 12.5, 25 and 50 nM; association 180 s, dissociation 600 s. Particulars: both partners purified.

Assay [3] concerns the target T1, human GITR on 293F‐hGITR cells. The experiment in a line: flow cytometry on cells; 293F‐hGITR or 293F‐cynoGITR cells incubated with antibodies at 4 °C for 1 h, fluorescent anti-rat/human secondary antibody; EC50 of MFI curve. Particulars: one partner purified.
For assay [4], the target named is T3, cynoGITR on 293F‐cynoGITR cells (Macaca fascicularis).
T3 construct: also called 293F‐cGITR
T3 chain: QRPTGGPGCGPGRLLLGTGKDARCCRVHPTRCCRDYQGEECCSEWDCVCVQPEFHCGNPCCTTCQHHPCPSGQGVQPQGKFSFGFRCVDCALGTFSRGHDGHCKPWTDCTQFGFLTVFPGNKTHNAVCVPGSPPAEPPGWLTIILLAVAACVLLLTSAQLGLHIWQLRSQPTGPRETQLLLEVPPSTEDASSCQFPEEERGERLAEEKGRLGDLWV
Described as above. Particulars: one partner purified.

The target in another assay is T4, human OX40 ECD hFc (Homo sapiens (Human)., UniProt P43489).
T4 construct: human OX40, extracellular domain
T4 sequence (P43489 29-214): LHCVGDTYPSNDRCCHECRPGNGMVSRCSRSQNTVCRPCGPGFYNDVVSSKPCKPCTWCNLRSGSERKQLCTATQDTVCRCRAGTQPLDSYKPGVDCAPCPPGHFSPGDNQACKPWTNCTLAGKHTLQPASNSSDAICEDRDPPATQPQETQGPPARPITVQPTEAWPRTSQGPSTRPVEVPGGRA
Put plainly: ELISA; indirect ELISA; antigen hFc fusion protein coated on 96-well plates (1 μg·mL^−1 overnight at 4 °C in Fig. 3B), antibody added, detected with anti-rat IgG/hIgG-peroxidase antibody. Particulars: both partners purified.

Another assay has as its target T5, 4‐1BB ECD hFc (Homo sapiens (Human)., UniProt Q07011).
T5 construct: 4-1BB, extracellular domain; called a paralogue of human GITR; The legend's word 'human' stands before OX40 only; human is likely
Described as above. The conditions noted are these: both partners purified.

Assay [5] has as its target T2, hGITR ECD hFc. The description is as above. The conditions noted are these: both partners purified.
Assay [6] addresses T6, cynoGITR ECD hFc (Macaca fascicularis).
T6 construct: cynomolgus GITR, extracellular domain, Gln20-Glu155, NCBI XP_005545180.1; also called cynoGITR protein; cGITR; source: FreeStyle 293F, transiently transfected, purified by protein A
T6 chain: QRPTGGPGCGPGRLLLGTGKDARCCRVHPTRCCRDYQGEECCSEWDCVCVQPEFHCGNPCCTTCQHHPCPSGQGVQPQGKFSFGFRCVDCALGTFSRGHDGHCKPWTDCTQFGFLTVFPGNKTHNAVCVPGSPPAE
Described as above. The conditions noted are these: both partners purified.

Assay [7] deals with T2, hGITR ECD hFc. The description is as above. The conditions noted are these: both partners purified. The source holds these as a separate data set.
Assay [8] addresses T6, cynoGITR ECD hFc. The assay is described as above. The conditions noted are these: both partners purified.

Numbering of substitutions follows the chain as printed. In names and notes the source's numbering stands.

T1 sequence (Q9Y5U5 26-241): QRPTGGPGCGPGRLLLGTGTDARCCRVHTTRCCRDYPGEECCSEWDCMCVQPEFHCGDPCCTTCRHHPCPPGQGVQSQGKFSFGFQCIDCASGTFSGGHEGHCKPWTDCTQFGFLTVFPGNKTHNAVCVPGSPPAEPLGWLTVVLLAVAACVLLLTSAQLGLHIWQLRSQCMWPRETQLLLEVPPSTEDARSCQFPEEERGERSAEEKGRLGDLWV
T5 sequence (Q07011 24-186): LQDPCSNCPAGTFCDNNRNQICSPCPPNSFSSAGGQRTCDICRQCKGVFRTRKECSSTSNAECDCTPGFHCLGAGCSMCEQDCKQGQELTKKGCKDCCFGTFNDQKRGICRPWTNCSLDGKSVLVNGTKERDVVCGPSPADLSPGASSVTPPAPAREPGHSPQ

B1: hab019e2 (antibody, V domains shown)
VH: QVQLVESGGGVVQPGRSLRLSCAASGFTFSSYGMHWVRQAPGKGLEWVAVIWYAGSRKFYADSVEGRFTISRDNSKNTLYLQMNSLRAEDTAVYYCARGGSLEGGFFYYGMDVWGQGTTVTVSS
VL: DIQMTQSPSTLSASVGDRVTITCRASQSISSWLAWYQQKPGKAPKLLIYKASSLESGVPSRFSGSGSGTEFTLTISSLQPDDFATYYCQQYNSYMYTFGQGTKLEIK
notes: 3503‐hab019‐VH(EG + NLA); positions not given; as the VL of m12 (3503‐hab019‐Vk); Whole antibody, human IgG1 heavy chain constant region, human kappa light chain constant region; also called hab19e2; source: FreeStyle 293F, transiently co-transfected, purified from culture supernatant
Take B1: the “NF‐ĸB luciferase reporter assay, Crosslinking, EC50” value in [1] stood at 7.69 nM. Besides, the “NF‐ĸB luciferase reporter assay, Crosslinking, Top ratio” value in assay [1] was determined as 13 fold. Also, the “NF‐ĸB luciferase reporter assay, No crosslinking, EC50” value in assay [1] was found to be 0.275 nM. Besides, in assay [1], the “NF‐ĸB luciferase reporter assay, No crosslinking, Top ratio” value stood at 8 fold. This molecule also displayed a Kd with hGITR ECD hFc [2] of 0.384 nM. For the same molecule, the EC50 in assay [3] amounted to 0.206 nM; in assay [4], 0.29 nM; in the assay with hGITR ECD hFc [5] it was 0.093 nM; with cynoGITR ECD hFc [6] it was 0.089 nM. Moreover, the binding result in the assay with human OX40 ECD hFc and in the assay with 4‐1BB ECD hFc was “no binding” throughout.

B2: hab070 (antibody, V domains shown)
VH: QVQLVESGGGVVQPGRSLRLSCAASGFTFSSYGMHWVRQAPGKGLEWVAVIWYETSNKFYVDSVKGRFTISRDNSKNTLYLQMNSLRAEDTAVYYCARYGASSGWYWYFDLWGRGTLVTVSS
VL: DIQLTQSPSFLSASVGDRVTITCRASQGISSFLAWYQQKPGKAPKLLIYAASTLQSGVPSRFSGSGSGTEFTLTISSLQPEDFATYCCQQLNSYPFTFGQGTKLEIK
notes: 3503‐hab070‐VH; 3503‐hab070‐Vk; Whole antibody, human IgG1 heavy chain constant region, human kappa light chain constant region; source: FreeStyle 293F, transiently co-transfected, purified from culture supernatant
In the case of B2, in [1], the “NF‐ĸB luciferase reporter assay, Crosslinking, EC50” value stood at 7.32 nM; the “NF‐ĸB luciferase reporter assay, Crosslinking, Top ratio” value turned out to be 16 fold; the “NF‐ĸB luciferase reporter assay, No crosslinking, EC50” value was 0.111 nM; the “NF‐ĸB luciferase reporter assay, No crosslinking, Top ratio” value turned out to be 9 fold. Further, the Kd with hGITR ECD hFc [2] came out at 0.251 nM. Besides, it took 0.19 nM to reach a half-maximal effect in [3] (EC50). In assay [4], this molecule returned an EC50 of 0.19 nM. For the same molecule, the EC50 with hGITR ECD hFc [5] was 0.099 nM. The same molecule registered an EC50 in the assay with cynoGITR ECD hFc [6] of 0.106 nM.

B3: hab076 (antibody, V domains shown)
VH: B2 VH with F59Y, V61A
VL: B2 VL with F32Y
notes: 3503‐hab076‐VH; 3503‐hab076‐Vk; Whole antibody, human IgG1 heavy chain constant region, human kappa light chain constant region; source: FreeStyle 293F, transiently co-transfected, purified from culture supernatant
B3: in [1], the “NF‐ĸB luciferase reporter assay, Crosslinking, EC50” value turned out to be 6.07 nM; the “NF‐ĸB luciferase reporter assay, Crosslinking, Top ratio” value was determined as 20 fold; the “NF‐ĸB luciferase reporter assay, No crosslinking, EC50” value stood at 0.157 nM; the “NF‐ĸB luciferase reporter assay, No crosslinking, Top ratio” value was determined as 9 fold. In the assay with hGITR ECD hFc [2], this molecule returned a Kd of 1.03 nM. The molecule further yielded an EC50 in [3] of 0.179 nM. The same molecule yielded an EC50 in [4] of 0.418 nM. The molecule further returned an EC50 with hGITR ECD hFc [5] of 0.091 nM. Moreover, the EC50 with cynoGITR ECD hFc [6] was determined as 0.101 nM.

B4: hab070e1 (antibody, V domains shown)
VH: B2 VH
VL: B2 VL with C87Y
notes: as the VH of m14 (3503‐hab070‐VH); 3503‐hab070‐Vk(C2Y); the substitution is against the VL of m14 (Cys in FR3 of VL); position not given; Whole antibody, human IgG1 heavy chain constant region, human kappa light chain constant region; also called hab70e1; source: FreeStyle 293F, transiently co-transfected, purified from culture supernatant
On to B4, for which the “NF‐ĸB luciferase reporter assay, Crosslinking, EC50” value in assay [1] was 6.78 nM. The “NF‐ĸB luciferase reporter assay, Crosslinking, Top ratio” value in assay [1] was 12 fold. Besides, in assay [1], the “NF‐ĸB luciferase reporter assay, No crosslinking, EC50” value worked out at 0.262 nM. Moreover, in assay [1], the “NF‐ĸB luciferase reporter assay, No crosslinking, Top ratio” value stood at 7 fold. Further, the Kd in the assay with hGITR ECD hFc [2] came out at 0.537 nM. In addition, the EC50 turned out to be 0.164 nM in assay [3], 0.268 nM in assay [4], 0.101 nM with hGITR ECD hFc [5] and 0.111 nM with cynoGITR ECD hFc [6]. For the same molecule, the binding result with human OX40 ECD hFc and in the assay with 4‐1BB ECD hFc was “no binding” each time.

B5: Tab9H6v3 (antibody, V domains shown)
VH: QVQLVESGGGVVQPGRSLRLSCVASGFTFSSYGMHWIRQAPGKGLEWVAVIWYEGSNKYYAESVKGRFTISRDNSKNTLYLQMNSLRAEDTAVYYCARGGRLGKDYYSGMDVWGQGTTVTVSS
VL: DIQMTQSPSSLSASVGDRVTITCRASQGIRNDLGWYQQKPGKAPKRLIYATSSLQSGVPSRFSGSGSGTEFTLTISSLQPEDFATYYCLQHNTYPWTFGQGTKVEIK
notes: heavy chain variable region of clone 9H6v3 (AMGEN INC.); light chain variable region of clone 9H6v3 (AMGEN INC.)
B5: the “NF‐ĸB luciferase reporter assay, Crosslinking, EC50” value in [1] stood at 8.86 nM. For the same molecule, the “NF‐ĸB luciferase reporter assay, Crosslinking, Top ratio” value in [1] was 14 fold. The “NF‐ĸB luciferase reporter assay, No crosslinking, EC50” value in assay [1] turned out to be 0.787 nM. The “NF‐ĸB luciferase reporter assay, No crosslinking, Top ratio” value in assay [1] came to 11 fold. In addition, binding with hGITR ECD hFc [2] was put at a Kd of 0.135 nM. Further, the EC50 in assay [3] was determined as 0.184 nM; in assay [4], 0.235 nM; in the assay with hGITR ECD hFc [7] it was 0.0709 nM; with cynoGITR ECD hFc [8] it was 0.0637 nM; with hGITR ECD hFc [5], 0.088 nM; with cynoGITR ECD hFc [6] it was 0.09 nM.

Values taken from paper PMC9340783, “Development of a fully human anti‐GITR antibody with potent antitumor activity using H2L2 mice” (FEBS Open Bio, 2022).
